Numbered stars: 1 amine (or outer) side, 2 acyl side, 3 side chain; on linkers, the order of the positions; unused ones are H or OH. Square brackets hold non-standard residues; d marks the D form. Side chains are listed from the residue outwards. Ends that are not written are not given here. * marks the point of attachment. C20 diacid = O=C(O)CCCCCCCCCCCCCCCCCCC(=O)*; C18 diacid = O=C(O)CCCCCCCCCCCCCCCCC(=O)*; C16 diacid = O=C(O)CCCCCCCCCCCCCCC(=O)*; γGlu = O=C(O)[C@H](CCC(=O)[*:2])N[*:1]; C14 diacid = O=C(O)CCCCCCCCCCCCC(=O)*
T1: human amylin receptor (human calcitonin receptor + human RAMP3) (human) (UniProt P30988)
T1 sequence (looked up) 1: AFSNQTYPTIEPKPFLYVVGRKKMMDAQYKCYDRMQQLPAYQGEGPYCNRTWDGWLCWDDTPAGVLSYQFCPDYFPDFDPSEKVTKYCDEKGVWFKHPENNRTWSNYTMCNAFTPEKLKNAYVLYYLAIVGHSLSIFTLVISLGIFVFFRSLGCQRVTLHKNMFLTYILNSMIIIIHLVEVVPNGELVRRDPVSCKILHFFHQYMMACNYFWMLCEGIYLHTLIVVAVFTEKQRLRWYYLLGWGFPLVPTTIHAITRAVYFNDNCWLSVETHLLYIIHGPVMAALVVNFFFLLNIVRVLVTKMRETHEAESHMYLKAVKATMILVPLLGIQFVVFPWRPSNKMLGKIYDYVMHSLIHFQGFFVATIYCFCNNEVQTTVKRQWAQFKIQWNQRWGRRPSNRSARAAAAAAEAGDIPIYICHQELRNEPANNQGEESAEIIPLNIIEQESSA
T1 sequence (looked up) 2: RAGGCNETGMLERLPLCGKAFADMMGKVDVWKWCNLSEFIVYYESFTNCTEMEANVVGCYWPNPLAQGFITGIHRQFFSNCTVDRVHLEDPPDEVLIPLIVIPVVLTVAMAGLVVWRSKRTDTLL


Tests used:
[1] = molecular target: T1, human amylin receptor (human calcitonin receptor + human RAMP3) (human); test: whole-cell competition vs 125I-rat amylin (Assay Va)
[2] = molecular target: rat calcitonin receptor (rat) (UniProt P32214); test: SPA competition vs 125I-calcitonin, membranes with rat CTR (Assay VIII)
[3] = molecular target: rat amylin receptor (rat calcitonin receptor with rat RAMP 3) (rat) (UniProt P32214); test: SPA competition vs 125I-rat amylin, membranes with rat CTR + rat RAMP3 (Assay VI)

[N-terminal(C18 diacid-gGlu-2xOEG), des1, 4G, 9V, 15Q, 21Q, 23Y, 30S, 31G, 32T, 33Y]mimylin (peptide), sequence (peptide): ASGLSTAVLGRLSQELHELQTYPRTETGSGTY

IC50 [1] [nM] | IC50 [2] [nM] | IC50 [3] [nM] | Molecule
0.801 | 0.032 | 0.357 | [N-terminal(C18 diacid-gGlu-2xOEG), des1, 4G, 9V, 15Q, 21Q, 23Y, 30S, 31G, 32T, 33Y]mimylin (peptide)
– | 0.044 | 0.455 | ASELSTAALGRLSAELHK([γGlu-C20 diacid])LATLPRTETGSGSP-NH2 (N-terminus assumed; SMILES CC(C)C[C@H](NC(=O)[C@H](C)NC(=O)[C@H](C)NC(=O)[C@@H](NC(=O)[C@H](CO)NC(=O)[C@H](CC(C)C)NC(=O)[C@H](CCC(=O)O)NC(=O)[C@H](CO)NC(=O)[C@H](C)N)[C@@H](C)O)C(=O)NCC(=O)N[C@@H](CCCNC(=N)N)C(=O)N[C@@H](CC(C)C)C(=O)N[C@@H](CO)C(=O)N[C@@H](C)C(=O)N[C@@H](CCC(=O)O)C(=O)N[C@@H](CC(C)C)C(=O)N[C@@H](Cc1c[nH]cn1)C(=O)N[C@@H](CCCCNC(=O)CC[C@H](NC(=O)CCCCCCCCCCCCCCCCCCC(=O)O)C(=O)O)C(=O)N[C@@H](CC(C)C)C(=O)N[C@@H](C)C(=O)N[C@H](C(=O)N[C@@H](CC(C)C)C(=O)N1CCC[C@H]1C(=O)N[C@@H](CCCNC(=N)N)C(=O)N[C@H](C(=O)N[C@@H](CCC(=O)O)C(=O)N[C@H](C(=O)NCC(=O)N[C@@H](CO)C(=O)NCC(=O)N[C@@H](CO)C(=O)N1CCC[C@H]1C(N)=O)[C@@H](C)O)[C@@H](C)O)[C@@H](C)O) [[des1, 19K(C20 diacid-gGlu), 30S, 31G]mimylin]
– | 0.017 | 0.122 | {C14 diacid-γGlu}-ASELSTAALGRLSAELHELATLPRTETGSGSP-NH2 [[N-terminal(C14 diacid-gGlu), des1, 30S, 31G]mimylin]
– | 0.011 | 0.064 | {C16 diacid}-ASELSTAALGRLSAELHELATLPRTETGSGSP-NH2 [[N-terminal(C16 diacid), des1, 30S, 31G]mimylin]
– | 0.246 | 0.385 | {C20 diacid-γGlu}-ASGLSTAVLGKLSQELHELQTYPPTETGSGTY-NH2 (SMILES CC(C)C[C@H](NC(=O)CNC(=O)[C@H](CO)NC(=O)[C@H](C)NC(=O)CC[C@H](NC(=O)CCCCCCCCCCCCCCCCCCC(=O)O)C(=O)O)C(=O)N[C@@H](CO)C(=O)N[C@H](C(=O)N[C@@H](C)C(=O)N[C@H](C(=O)N[C@@H](CC(C)C)C(=O)NCC(=O)N[C@@H](CCCCN)C(=O)N[C@@H](CC(C)C)C(=O)N[C@@H](CO)C(=O)N[C@@H](CCC(N)=O)C(=O)N[C@@H](CCC(=O)O)C(=O)N[C@@H](CC(C)C)C(=O)N[C@@H](Cc1c[nH]cn1)C(=O)N[C@@H](CCC(=O)O)C(=O)N[C@@H](CC(C)C)C(=O)N[C@@H](CCC(N)=O)C(=O)N[C@H](C(=O)N[C@@H](Cc1ccc(O)cc1)C(=O)N1CCC[C@H]1C(=O)N1CCC[C@H]1C(=O)N[C@H](C(=O)N[C@@H](CCC(=O)O)C(=O)N[C@H](C(=O)NCC(=O)N[C@@H](CO)C(=O)NCC(=O)N[C@H](C(=O)N[C@@H](Cc1ccc(O)cc1)C(N)=O)[C@@H](C)O)[C@@H](C)O)[C@@H](C)O)[C@@H](C)O)C(C)C)[C@@H](C)O) [[N-terminal(C20 diacid-gGlu), des1, 4G, 9V, 12K, 15Q, 21Q, 23Y, 25P, 30S, 31G, 32T, 33Y]mimylin]
– | 0.071 | 0.684 | Ac-ASELSTAALGRLSAELHK([γGlu-C20 diacid])LATLPRTETGSGSP-NH2 [[N-terminal(acetyl), des1, 19K(C20 diacid-gGlu), 30S, 31G]mimylin]
– | 0.065 | 1.3 | ASELSTAALGRLSAK([γGlu-C20 diacid])LHELATLPRTETGSGSP-NH2 (N-terminus assumed; SMILES CC(C)C[C@H](NC(=O)[C@H](C)NC(=O)[C@H](C)NC(=O)[C@@H](NC(=O)[C@H](CO)NC(=O)[C@H](CC(C)C)NC(=O)[C@H](CCC(=O)O)NC(=O)[C@H](CO)NC(=O)[C@H](C)N)[C@@H](C)O)C(=O)NCC(=O)N[C@@H](CCCNC(=N)N)C(=O)N[C@@H](CC(C)C)C(=O)N[C@@H](CO)C(=O)N[C@@H](C)C(=O)N[C@@H](CCCCNC(=O)CC[C@H](NC(=O)CCCCCCCCCCCCCCCCCCC(=O)O)C(=O)O)C(=O)N[C@@H](CC(C)C)C(=O)N[C@@H](Cc1c[nH]cn1)C(=O)N[C@@H](CCC(=O)O)C(=O)N[C@@H](CC(C)C)C(=O)N[C@@H](C)C(=O)N[C@H](C(=O)N[C@@H](CC(C)C)C(=O)N1CCC[C@H]1C(=O)N[C@@H](CCCNC(=N)N)C(=O)N[C@H](C(=O)N[C@@H](CCC(=O)O)C(=O)N[C@H](C(=O)NCC(=O)N[C@@H](CO)C(=O)NCC(=O)N[C@@H](CO)C(=O)N1CCC[C@H]1C(N)=O)[C@@H](C)O)[C@@H](C)O)[C@@H](C)O) [[des1, 16K(C20 diacid-gGlu), 30S, 31G]mimylin]
– | 0.013 | 0.063 | {C18 diacid}-ASELSTAALGRLSAELHELATLPRTETGSGSP-NH2 [[N-terminal(C18 diacid), des1, 30S, 31G]mimylin]
– | 0.023 | 0.029 | {C20 diacid-γGlu}-ASELSTAALGRLSAELHELATLPRTETGSGSY-NH2 (SMILES CC(C)C[C@H](NC(=O)[C@H](C)NC(=O)[C@H](C)NC(=O)[C@@H](NC(=O)[C@H](CO)NC(=O)[C@H](CC(C)C)NC(=O)[C@H](CCC(=O)O)NC(=O)[C@H](CO)NC(=O)[C@H](C)NC(=O)CC[C@H](NC(=O)CCCCCCCCCCCCCCCCCCC(=O)O)C(=O)O)[C@@H](C)O)C(=O)NCC(=O)N[C@@H](CCCNC(=N)N)C(=O)N[C@@H](CC(C)C)C(=O)N[C@@H](CO)C(=O)N[C@@H](C)C(=O)N[C@@H](CCC(=O)O)C(=O)N[C@@H](CC(C)C)C(=O)N[C@@H](Cc1c[nH]cn1)C(=O)N[C@@H](CCC(=O)O)C(=O)N[C@@H](CC(C)C)C(=O)N[C@@H](C)C(=O)N[C@H](C(=O)N[C@@H](CC(C)C)C(=O)N1CCC[C@H]1C(=O)N[C@@H](CCCNC(=N)N)C(=O)N[C@H](C(=O)N[C@@H](CCC(=O)O)C(=O)N[C@H](C(=O)NCC(=O)N[C@@H](CO)C(=O)NCC(=O)N[C@@H](CO)C(=O)N[C@@H](Cc1ccc(O)cc1)C(N)=O)[C@@H](C)O)[C@@H](C)O)[C@@H](C)O) [[N-terminal(C20 diacid-gGlu), des1, 30S, 31G, 33Y]mimylin]
– | 0.017 | 0.017 | {C20 diacid-γGlu}-ASELSTAALGRLS[dE]ELHELATLPRTETGSGSP-NH2 (SMILES CC(C)C[C@H](NC(=O)[C@H](C)NC(=O)[C@H](C)NC(=O)[C@@H](NC(=O)[C@H](CO)NC(=O)[C@H](CC(C)C)NC(=O)[C@H](CCC(=O)O)NC(=O)[C@H](CO)NC(=O)[C@H](C)NC(=O)CC[C@H](NC(=O)CCCCCCCCCCCCCCCCCCC(=O)O)C(=O)O)[C@@H](C)O)C(=O)NCC(=O)N[C@@H](CCCNC(=N)N)C(=O)N[C@@H](CC(C)C)C(=O)N[C@@H](CO)C(=O)N[C@H](CCC(=O)O)C(=O)N[C@@H](CCC(=O)O)C(=O)N[C@@H](CC(C)C)C(=O)N[C@@H](Cc1c[nH]cn1)C(=O)N[C@@H](CCC(=O)O)C(=O)N[C@@H](CC(C)C)C(=O)N[C@@H](C)C(=O)N[C@H](C(=O)N[C@@H](CC(C)C)C(=O)N1CCC[C@H]1C(=O)N[C@@H](CCCNC(=N)N)C(=O)N[C@H](C(=O)N[C@@H](CCC(=O)O)C(=O)N[C@H](C(=O)NCC(=O)N[C@@H](CO)C(=O)NCC(=O)N[C@@H](CO)C(=O)N1CCC[C@H]1C(N)=O)[C@@H](C)O)[C@@H](C)O)[C@@H](C)O) [[N-terminal(C20 diacid-gGlu), des1, 15e, 30S, 31G]mimylin]
– | 0.01 | 0.046 | Ac-ASK([γGlu-C20 diacid])LSTAALGRLSAELHELATLPRTETGSGSP-NH2 [[N-terminal(acetyl), des1, 4K(C20 diacid-gGlu), 30S, 31G]mimylin]
– | 0.013 | 0.022 | {C16 diacid-γGlu}-ASELSTAALGRLSAELHELATLPRTETGSGSP-NH2 [[N-terminal(C16 diacid-gGlu), des1, 30S, 31G]mimylin]
– | 0.042 | 0.115 | Ac-ASELSTAALGRLSAK([γGlu-C20 diacid])LHELATLPRTETGSGSP-NH2 [[N-terminal(acetyl), des1, 16K(C20 diacid-gGlu), 30S, 31G]mimylin]
2.02 | 0.039 | 0.026 | {C20 diacid-γGlu}-ASELSTAALGRLSAELHELATYPRTETGSGAP-NH2 (SMILES CC(C)C[C@H](NC(=O)[C@H](C)NC(=O)[C@H](C)NC(=O)[C@@H](NC(=O)[C@H](CO)NC(=O)[C@H](CC(C)C)NC(=O)[C@H](CCC(=O)O)NC(=O)[C@H](CO)NC(=O)[C@H](C)NC(=O)CC[C@H](NC(=O)CCCCCCCCCCCCCCCCCCC(=O)O)C(=O)O)[C@@H](C)O)C(=O)NCC(=O)N[C@@H](CCCNC(=N)N)C(=O)N[C@@H](CC(C)C)C(=O)N[C@@H](CO)C(=O)N[C@@H](C)C(=O)N[C@@H](CCC(=O)O)C(=O)N[C@@H](CC(C)C)C(=O)N[C@@H](Cc1c[nH]cn1)C(=O)N[C@@H](CCC(=O)O)C(=O)N[C@@H](CC(C)C)C(=O)N[C@@H](C)C(=O)N[C@H](C(=O)N[C@@H](Cc1ccc(O)cc1)C(=O)N1CCC[C@H]1C(=O)N[C@@H](CCCNC(=N)N)C(=O)N[C@H](C(=O)N[C@@H](CCC(=O)O)C(=O)N[C@H](C(=O)NCC(=O)N[C@@H](CO)C(=O)NCC(=O)N[C@@H](C)C(=O)N1CCC[C@H]1C(N)=O)[C@@H](C)O)[C@@H](C)O)[C@@H](C)O) [[N-terminal(C20 diacid-gGlu), des1, 23Y, 30S, 31G, 32A]mimylin]

From patent US20160272683A1 (Novo Nordisk, published 2016)
